This assay concerns the target T1, GST-HSD17B7 fusion protein (human, UniProt P56937-1 1-341).
T1 construct: HSD17B7 (17β-hydroxysteroid dehydrogenase type 7), human, full-length cDNA amplified from HEK293T cDNA; 341 aa by the domain limits printed (1-229, 230-250, 251-341); also called 17β-Hydroxysteroid dehydrogenase type 7
T1 sequence (looked up): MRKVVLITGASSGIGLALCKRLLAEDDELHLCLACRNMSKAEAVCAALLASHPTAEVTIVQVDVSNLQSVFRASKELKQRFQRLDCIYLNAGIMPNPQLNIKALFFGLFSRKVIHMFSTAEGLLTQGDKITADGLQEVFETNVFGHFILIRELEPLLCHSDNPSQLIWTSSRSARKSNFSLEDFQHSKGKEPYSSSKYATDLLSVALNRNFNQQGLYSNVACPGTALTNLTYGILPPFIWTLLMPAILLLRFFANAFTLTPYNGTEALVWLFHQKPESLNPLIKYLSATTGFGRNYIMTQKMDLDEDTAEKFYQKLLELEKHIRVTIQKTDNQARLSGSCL
The assay can be described thus: pull-down; GST and GST-HSD17B7 immobilised on GSH resin, incubated with purified His-RER1 overnight at 4°C, washed with 0.3% PBST; Coomassie staining and western blot. To be noted: both partners purified. For orientation: In western blotting, separated proteins are transferred to a membrane and probed.

B1: RER1-His (natural protein, human (cDNA from HEK293T), UniProt O15258 1-196, looked up)
chain: MSEGDSVGESVHGKPSVVYRFFTRLGQIYQSWLDKSTPYTAVRWVVTLGLSFVYMIRVYLLQGWYIVTYALGIYHLNLFIAFLSPKVDPSLMEDSDDGPSLPTKQNEEFRPFIRRLPEFKFWHAATKGILVAMVCTFFDAFNVPVFWPILVMYFIMLFCITMKRQIKHMIKYRYIPFTHGKRRYRGKEDAGKAFAS
notes: RER1, full-length cDNA amplified from HEK293T cDNA; The legend prints RER1-His, the methods His-RER1; the pET-23b vector would add a C-terminal His tag (surmised); Detected by immunoblot of the His tag; also called His-RER1; ER retention receptor RER1
As to B1, the binding result is recorded as “binds”.

Source of the values: publication PMC13233068, “HSD17B7 is required for the function of sensory hair cells by regulating cholesterol synthesis” (eLife, 2026).
